For the test, the target named is T1, recombinant Aub with N-terminal His-, Myc- and 3xFLAG-tags (Drosophila, UniProt O76922 1-866).
T1 construct: Aubergine (Aub), Drosophila; aub cDNA cloned into pFastBac/NT-TOPO; also called FLAG-tagged Aub; Aubergine; source: Sf9 (bacmid from pFastBac/NT-TOPO), purified (anti-c-Myc beads, c-Myc peptide elution); not shown: Myc, N-terminal, kept; 3xFLAG, N-terminal, kept
T1 sequence (looked up): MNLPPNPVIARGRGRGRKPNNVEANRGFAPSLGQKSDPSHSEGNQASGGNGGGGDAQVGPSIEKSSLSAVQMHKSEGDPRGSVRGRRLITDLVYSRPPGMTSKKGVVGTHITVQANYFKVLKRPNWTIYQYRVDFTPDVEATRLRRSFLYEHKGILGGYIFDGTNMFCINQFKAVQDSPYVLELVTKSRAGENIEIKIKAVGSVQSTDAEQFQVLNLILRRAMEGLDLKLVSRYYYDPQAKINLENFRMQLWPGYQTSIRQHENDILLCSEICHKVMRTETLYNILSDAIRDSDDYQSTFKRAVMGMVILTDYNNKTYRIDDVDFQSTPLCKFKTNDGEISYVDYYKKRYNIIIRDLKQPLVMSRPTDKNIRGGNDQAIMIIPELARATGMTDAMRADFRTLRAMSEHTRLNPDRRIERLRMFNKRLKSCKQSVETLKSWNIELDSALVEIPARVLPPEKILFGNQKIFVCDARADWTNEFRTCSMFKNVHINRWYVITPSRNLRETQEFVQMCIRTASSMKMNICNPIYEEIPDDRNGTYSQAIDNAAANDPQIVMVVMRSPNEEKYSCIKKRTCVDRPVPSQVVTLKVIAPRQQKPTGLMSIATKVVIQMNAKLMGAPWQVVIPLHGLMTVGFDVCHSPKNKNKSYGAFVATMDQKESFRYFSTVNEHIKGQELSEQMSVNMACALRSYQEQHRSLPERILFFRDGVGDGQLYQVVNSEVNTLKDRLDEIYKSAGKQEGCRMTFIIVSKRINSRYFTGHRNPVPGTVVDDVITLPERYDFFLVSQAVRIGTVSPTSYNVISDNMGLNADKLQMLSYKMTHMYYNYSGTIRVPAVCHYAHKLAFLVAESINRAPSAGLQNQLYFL
The test can be described thus: pull-down; purified FLAG-tagged Aub or FLAG-GFP control bound to anti-FLAG beads; purified Myc-eIF4A added in PBS, 0.05% IGEPAL CA-630, 4 °C, 60 min; western blot with anti-c-Myc. As to conditions: both partners purified.

B1: Myc-tagged eIF4A (enzyme, Drosophila, UniProt Q02748 1-403, looked up)
chain: MDDRNEIPQDGPASMEPEGVIESTWHEVYDNFDDMNLREELLRGIYGYGFEKPSAIQQRAIIPCVRGRDVIAQAQSGTGKTATFSIAILQQIDTSIRECQALILAPTRELATQIQRVVMALGEYMKVHSHACIGGTNVREDARILESGCHVVVGTPGRVYDMINRKVLRTQYIKLFVLDEADEMLSRGFKDQIQDVFKMLPPDVQVILLSATMPPDVLEVSRCFMRDPVSILVKKEELTLEGIKQFYVNVKQENWKLGTLCDLYDTLSITQSVIFCNTRRKVDQLTQEMSIHNFTVSAMHGDMEQRDREVIMKQFRSGSSRVLITTDLLARGIDVQQVSLVINYDLPSNRENYIHRIGRGGRFGRKGVAINFITDDDRRILKDIEQFYHTTIEEMPANIADLI
notes: eukaryotic translation initiation factor 4A (eIF4A), ATP-dependent RNA helicase, Drosophila; also called Myc-eIF4A; eukaryotic translation initiation factor 4A; source: S2 cells, purified (anti-c-Myc beads, c-Myc peptide elution)
Take B1: the binding result is recorded as “binds”.

The values above are taken from article PMC5302063, “In vivo mapping of a dynamic ribonucleoprotein granule interactome in early Drosophila embryos” (FEBS Open Bio, 2016).
